# According to article PMC8218332 (Cell, 2021):
# Target: T1, His-tagged SARS-CoV-2 RBD T478K (SARS-CoV-2, Wuhan-Hu-1 RBD with T478K, T478K)
# T1 construct: not shown: His6, N-terminal, kept
# Experiment: BLI
# Conditions: both partners purified
row,Binder,Kd [pM]
1,"mAb 278 (antibody, V domains shown, copies: 2 + 2) VH: QVQLVQSGAEVKKPGASVKVSCKASGYIFIRYGISWVRQAPGQGLEWMGWISANNGYTNYAQKLQGRVTMTTDTSTSTAYMELRSLRSDDTAVYYCARDGGILTGYLDYFDHWGQGTLVTVSS VL: DIQMTQSPSSLSASVGDRLTITCRASQSIASYLNWYQQKPGKAPKLLIYAASSLQSGVPSRFSGSGSGTDFTLTISSLQPEDFATYHCQQSYSTLGITFGPGTKVDIK",1500
2,"mAb 316 (antibody, V domains shown, copies: 2 + 2) VH: not shown VL: QAVLTQPPSASGSPGQSVTISCTGTSSDVGGYNYVSWYQQHPGKAPKLMIYEVSKRPSGVPDRFSGSKSGNTASLTVSGLQAEDEADYYCSSYAGSNHWVFGGGTKLTVL",690
3,"mAb 88 (antibody, V domains shown, copies: 2 + 2) VH: QLQLQESGPGLVKPSQTLSLTCTVSGGSISSGSYNWTWIRQPAGKGLEWIGRIYNSGSTNYNPSLKSRVTISVDTSKNQLSLKVRSVTAADTAVYYCARHCSGGTCYPKYYYGMDVWGQGTTVTVSS VL: QSALTQPPSVSEAPRQRVTISCSGSSSNIGNNAVNWYQQFPGKAPKLLIYYDDLLPSGVSDRFSGSKSGTSASLAISGVQSEDEADYYCAAWDDSLNVVVFGGGTKLTVL",2400
4,"REGN10987 (antibody, V domains shown, source: provided by AstraZeneca; copies: 2 + 2) VH: QVQLVESGGGVVQPGRSLRLSCAASGFTFSNYAMYWVRQAPGKGLEWVAVISYDGSNKYYADSVKGRFTISRDNSKNTLYLQMNSLRTEDTAVYYCASGSDYGDYLLVYWGQGTLVTVSS VL: QSALTQPASVSGSPGQSITISCTGTSSDVGGYNYVSWYQQHPGKAPKLMIYDVSKRPSGVSNRFSGSKSGNTASLTISGLQSEDEADYYCNSLTSISTWVFGGGTKLTVL",350
5,"mAb 222 (antibody, V domains shown, copies: 2 + 2) VH: EVQLVESGGGLIQPGGSLRLSCAASGLTVSSNYMSWVRQAPGKGLEWVSVIYSGGSTFYADSVKGRFTISRDNSKNTLYLQMNSLGAEDTAVYYCARGEGSPGNWFDPWGQGTLVTVSS VL: DVVMTQSPGTLSLSPGERATLSCRASQSVPSSYLAWYQQKPGQAPRLLIYGASTRATGIPDRFSGSGSGTDFTLTISRLEPEDFAVYYCQHYDTSPRFGGGTKVDIK",200
